Source: PMC3481545

Assays:
Test in all cases: SPR
Activin = Activin (UniProt P08476)
BMP-7 = BMP-7 (UniProt P18075)
GDF-5 = GDF-5 (UniProt P43026)
Chain of GDF-5 (P43026 382-501): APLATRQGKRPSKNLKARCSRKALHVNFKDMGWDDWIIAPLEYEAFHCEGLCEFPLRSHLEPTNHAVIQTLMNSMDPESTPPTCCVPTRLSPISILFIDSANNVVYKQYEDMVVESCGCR

Chain of BMP-7 (P18075 293-431): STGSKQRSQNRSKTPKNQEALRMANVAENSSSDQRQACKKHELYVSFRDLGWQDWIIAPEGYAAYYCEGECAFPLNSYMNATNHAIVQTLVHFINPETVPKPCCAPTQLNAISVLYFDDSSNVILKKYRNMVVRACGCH

Kd (Activin) [µM]	Kd (BMP-7) [µM]	Kd (GDF-5) [µM]	Substance
> 1300	30	> 1300	AΔA: ActR-IIB ECD with its A-loop deleted (domain or fragment)
94	27	> 1300	BΔB: BMPR-II ECD with its A-loop deleted (from UniProt Q13873 26-150) (domain or fragment)
–	16	> 1300	human recombinant ActR-IIB ECD, wild type (from UniProt Q13705 19-134) (domain or fragment)
